Consider nine substances from PMC4751435 (2016).

Assay in all cases: BRET
On the technique in general: BRET reads energy transfer from a luciferase to a nearby fluorophore.

In experiment [1] the target is luciferase-FOXP2 (wild-type, full-length 1-715) (UniProt O15409). As to conditions: HEK293 cells, n = 3, read off a plot.
The target of experiment [2] is luciferase-FOXP1 (UniProt Q9H334). As to conditions: HEK293 cells, n = 3, read off a plot.
Experiment [3] deals with luciferase-FOXP2 (wild-type, full-length 1-715) (UniProt O15409). Conditions: HEK293 cells, n = 3, read off a plot. This is another data set of the same source.
Experiment [4] has as its target YFP-SUMO1 alanine mutant (AA), P63165-1. As to conditions: HEK293 cells; n = 3; control donor (nuclear-targeted luciferase) est. 0.005; parent: est. 0.15; read off a plot.
Experiment [5] shares this target. As to conditions: HEK293 cells; n = 3; control donor (nuclear-targeted luciferase) est. 0.004; parent: est. 0.15; read off a plot.
Experiment [6] deals with YFP-SUMO2 alanine mutant (AA), P61956-1. As to conditions: HEK293 cells; n = 3; control donor (nuclear-targeted luciferase) est. 0.028; parent: est. 0.20; read off a plot.
The target is the same in experiment [7]. As to conditions: HEK293 cells; n = 3; control donor (nuclear-targeted luciferase) est. 0.028; parent: est. 0.20; read off a plot. The source holds these as a separate data set.
Experiment [8] deals with YFP-SUMO3 alanine mutant (AA), P55854-2. As to conditions: HEK293 cells; n = 3; control donor (nuclear-targeted luciferase) est. 0.034; parent: est. 0.23; read off a plot.
Experiment [9] has the same target. As to conditions: HEK293 cells; n = 3; control donor (nuclear-targeted luciferase) est. 0.034; parent: est. 0.23; read off a plot. This is another data set of the same source.
Setting [10] is: control donor (nuclear-targeted luciferase) est. 0.028, parent: est. 0.20.
Setting [11] is: control donor (nuclear-targeted luciferase) est. 0.034, parent: est. 0.23.

YFP-SUMO1 alanine mutant (AA), P63165-1, sequence (P63165 1-97, change not shown): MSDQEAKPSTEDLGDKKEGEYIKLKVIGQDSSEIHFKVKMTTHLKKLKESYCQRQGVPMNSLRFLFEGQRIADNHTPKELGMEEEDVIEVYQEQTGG
YFP-SUMO3 alanine mutant (AA), P55854-2, sequence (P55854 other isoform, or with tags, fused parts or gaps, change not shown): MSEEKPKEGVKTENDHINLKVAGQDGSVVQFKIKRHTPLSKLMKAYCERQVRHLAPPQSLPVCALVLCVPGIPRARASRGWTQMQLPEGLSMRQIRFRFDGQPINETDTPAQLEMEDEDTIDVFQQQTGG

For “YFP-SUMO1 (wild-type, GG) (from UniProt P63165-1) AA”, the response in [1] (control donor (nuclear-targeted luciferase) est. 0.000, parent: est. 0.077) was -0.017 BRET ratio; in [1] (control donor (nuclear-targeted luciferase) est. 0.005, parent: est. 0.15), 0.019 BRET ratio; in experiment [2] (control donor (nuclear-targeted luciferase) est. 0.000, parent: est. 0.15) it was -0.043 BRET ratio; in experiment [3] (control donor (nuclear-targeted luciferase) est. 0.004, parent: est. 0.15), 0.019 BRET ratio.
For the substance “YFP-SUMO2 (wild-type, GG) (from UniProt P61956-1) AA”, the response in [1] (control donor (nuclear-targeted luciferase) est. 0.012, parent: est. 0.13) is 0.005 BRET ratio; in experiment [1] (setting [10]), 0.032 BRET ratio; in experiment [2] (control donor (nuclear-targeted luciferase) est. 0.012, parent: est. 0.19), -0.036 BRET ratio; in experiment [3] (setting [10]) it was 0.032 BRET ratio.
Regarding “YFP-SUMO3 (wild-type, GG) (from UniProt P55854) AA”, the response in experiment [1] (control donor (nuclear-targeted luciferase) est. 0.015, parent: est. 0.15) was 0.012 BRET ratio; in experiment [1] (setting [11]), 0.065 BRET ratio; in experiment [2] (control donor (nuclear-targeted luciferase) est. 0.015, parent: est. 0.20), -0.035 BRET ratio; in experiment [3] (setting [11]), 0.065 BRET ratio.
With m1; m10 FOXP2:K674R; SUMO1:AA, in [4], the response stood at 0.012 BRET ratio.
Consider m1; m10 FOXP2:R553H; SUMO1:AA, for which the response in experiment [5] stood at 0.008 BRET ratio.
Consider m1; m11 FOXP2:K674R; SUMO2:AA, for which the response in [6] was determined as 0.021 BRET ratio.
Take m1; m11 FOXP2:R553H; SUMO2:AA: the response in experiment [7] stood at 0.048 BRET ratio.
Regarding m1; m12 FOXP2:K674R; SUMO3:AA, the response in experiment [8] is 0.043 BRET ratio.
In the case of m1; m12 FOXP2:R553H; SUMO3:AA, the response in [9] was 0.027 BRET ratio.
